In publication PMC6368335, “Inhibition of the Staphylococcus aureus c-di-AMP cyclase DacA by direct interaction with the phosphoglucosamine mutase GlmM” (PLoS Pathogens, 2019):

Columns and labels:
[1] = target: S. aureus DacACD-C variant (N166C, T172C), tag-less (S. aureus); experiment: SEC; tag-less proteins after Ni-NTA and thrombin cleavage on a Superdex 200 10/300 column, UV at 280 nm
[2] = target: S. aureus phosphoglucosamine mutase GlmM, tag-less (S. aureus) (UniProt P0C0V7); experiment: SEC-SAXS; tag-less DacACD, GlmM and the DacACD/GlmM complex on a Superdex 200 5/150 column coupled to the SAXS beam, 30 mM Tris pH 7.5, 150 mM NaCl; envelopes reconstructed, crystal structures fitted
[3] = target: S. aureus DacA catalytic domain (DacACD), tag-less (S. aureus); experiment: as above
[4] = target: S. aureus phosphoglucosamine mutase GlmM, C-terminally His-tagged (GlmM-His) (S. aureus) (UniProt P0C0V7)
[5] = target: S. aureus phosphoglucosamine mutase GlmM, tag-less (S. aureus) (UniProt P0C0V7); experiment: SEC-MALS + native MS; purified tag-less DacACD/GlmM complex; SEC-MALS: 100 ul at 18 mg/ml, Superdex 200 Increase 10/300, 30 mM Tris pH 7.5, 150 mM NaCl; native MS: 13.5 uM in 200 mM ammonium acetate
[6] = target: S. aureus phosphoglucosamine mutase GlmM, tag-less (S. aureus) (UniProt P0C0V7); experiment: native MS; purified tag-less DacACD/GlmM complex, 13.5 uM in 200 mM ammonium acetate pH 7.5, nanoelectrospray, Waters Synapt QToF; species deconvoluted with Amphitrite; conditions: scale: DacACD per GlmM
[7] = target: S. aureus DacA catalytic domain (DacACD), tag-less (S. aureus); experiment: as above
[8] = target: S. aureus DacA catalytic domain (DacACD), tag-less (S. aureus); experiment: SEC; tag-less proteins after Ni-NTA and thrombin cleavage on a Superdex 200 10/300 column, UV at 280 nm
[9] = target: S. aureus DacACD-K variant (N166K, T172K), tag-less (S. aureus); experiment: as above
[10] = target: the molecule itself; experiment: native MS; purified tag-less DacACD/GlmM complex, 13.5 uM in 200 mM ammonium acetate pH 7.5, nanoelectrospray, Waters Synapt QToF; species deconvoluted with Amphitrite

Question: “S. aureus DacACD-C variant (N166C, T172C), tag-less (domain or fragment)” was tested. Which stoichiometry N [1] did it give?
Answer: 2

Question: For “S. aureus DacA catalytic domain (DacACD), tag-less (domain or fragment)”, which stoichiometry N (DacACD dimer per GlmM dimer) [2] is on record?
Answer: 1

Question: What about the stoichiometry N [3] of the same molecule?
Answer: 2

Question: And the GlmM phosphoglucosamine mutase activity (coupled radioactive assay with GlmU), DacA in 5- to 400-fold excess over GlmM; no inhibition at 5- to 50-fold excess [4]?
Answer: 15%

Question: What about the stoichiometry N (DacACD dimer per GlmM dimer (2:2)) [5] of the same molecule?
Answer: 1

Question: And the stoichiometry N [6]?
Answer: 1

Question: And the stoichiometry N [7]?
Answer: 2

Question: And the stoichiometry N [8]?
Answer: 2

Question: With “S. aureus DacACD-K variant (N166K, T172K), tag-less (domain or fragment)” as the molecule, how does the stoichiometry N [9] read?
Answer: 2

B1: S. aureus phosphoglucosamine mutase GlmM, tag-less (enzyme)
chain: MGKYFGTDGVRGVANQELTPELAFKLGRYGGYVLAHNKGEKHPRVLVGRDTRVSGEMLESALIAGLISIGAEVMRLGIISTPGVAYLTRDMGAELGVMISASHNPVADNGIKFFGSDGFKLSDEQENEIEALLDQENPELPRPVGNDIVHYSDYFEGAQKYLSYLKSTVDVNFEGLKIALDGANGSTSSLAPFLFGDLEADTETIGCSPDGYNINEKCGSTHPEKLAEKVVETESDFGLAFDGDGDRIIAVDENGQIVDGDQIMFIIGQEMHKNQELNNDMIVSTVMSNLGFYKALEQEGIKSNKTKVGDRYVVEEMRRGNYNLGGEQSGHIVMMDYNTTGDGLLTGIQLASVIKMTGKSLSELAGQMKKYPQSLINVRVTDKYRVEENVDVKEVMTKVEVEMNGEGRILVRPSGTEPLVRVMVEAATDEDAERFAQQIADVVQDKMGLDK
notes: phosphoglucosamine mutase GlmM of S. aureus (LAC* genomic DNA); C-terminal 6-His tag removed at the thrombin site; In the tag-less DacACD/GlmM complex (SASBDB SASDE78) this chain stands with m1; also called tag-less GlmM; source: E. coli BL21 (DE3), purified (Ni-NTA, thrombin cleavage of the His-tag, size exclusion chromatography); not shown: His6, C-terminal, cleaved
Question: B1 was tested. Which “stoichiometry N” value [10] did it give?
Answer: 2
